Data taken from IntAct's records for PubMed 9528852.

B1: Ubiquitin carboxyl-terminal hydrolase BAP1 (Mus musculus), Q99PU7 (parent)
chain: MNKGWLELESDPGLFTLLVEDFGVKGVQVEEIYDLQSKCQGPVYGFIFLFKWIEERRSRRKVSTLVDDTSVIDDDIVNNMFFAHQLIPNSCATHALLSVLLNCSNVDLGPTLSRMKDFTKGFSPESKGYAIGNAPELAKAHNSHARPEPRHLPEKQNGLSAVRTMEAFHFVSYVPITGRLFELDGLKVYPIDHGPWGEDEEWTDKARRVIMERIGLATAGEPYHDIRFNLMAVVPDRRIKYETRLHVLKVNRQTVLEALQQLIRVTQPELIQTHKSQESQLPEESKPASSKSPLGLEAGRTPVASECTQTDGAEEVAGSCPQTTTHSPPSKCKLVVKPPGSSLNGVPPNPAPIVQRLPAFLDNHNYAKSPMQEEEDLAAGVGRSRVPVRAPQQYSEDEDDYEDEDEDVQNTNPAIRYKRKGTGKPGSLSNSSDGQLSVLQPNTINVLTEKLQESQKDLSVPLSIKTSSGAGSPAVAVPTHSQPSPTPSNESTDTASEIGSAFNSPLRSPIRSANPTRPSSPVTSHISKVLFGEDDSLLRVDCIRYNRAVRDLGPVISTGLLHLAEDGVLSPLALTEGGKGSSPSTRSSQGSQGSSGLEEKEVVEVTESRDKPGLNRSSEPLSGEKYSPKELLALLKCVEAEIANYEACLKEEVEKRKKFKIDDQRRTHNYDEFICTFISMLAQEGMLANLVEQNISVRRRQGVSIGRLHKQRKPDRRKRSRPYKAKRQ

Variants of: B1
Details: with brca1_human BRCA1, P38398
Sequence of brca1_human BRCA1, P38398 (P38398 whole entry, looked up): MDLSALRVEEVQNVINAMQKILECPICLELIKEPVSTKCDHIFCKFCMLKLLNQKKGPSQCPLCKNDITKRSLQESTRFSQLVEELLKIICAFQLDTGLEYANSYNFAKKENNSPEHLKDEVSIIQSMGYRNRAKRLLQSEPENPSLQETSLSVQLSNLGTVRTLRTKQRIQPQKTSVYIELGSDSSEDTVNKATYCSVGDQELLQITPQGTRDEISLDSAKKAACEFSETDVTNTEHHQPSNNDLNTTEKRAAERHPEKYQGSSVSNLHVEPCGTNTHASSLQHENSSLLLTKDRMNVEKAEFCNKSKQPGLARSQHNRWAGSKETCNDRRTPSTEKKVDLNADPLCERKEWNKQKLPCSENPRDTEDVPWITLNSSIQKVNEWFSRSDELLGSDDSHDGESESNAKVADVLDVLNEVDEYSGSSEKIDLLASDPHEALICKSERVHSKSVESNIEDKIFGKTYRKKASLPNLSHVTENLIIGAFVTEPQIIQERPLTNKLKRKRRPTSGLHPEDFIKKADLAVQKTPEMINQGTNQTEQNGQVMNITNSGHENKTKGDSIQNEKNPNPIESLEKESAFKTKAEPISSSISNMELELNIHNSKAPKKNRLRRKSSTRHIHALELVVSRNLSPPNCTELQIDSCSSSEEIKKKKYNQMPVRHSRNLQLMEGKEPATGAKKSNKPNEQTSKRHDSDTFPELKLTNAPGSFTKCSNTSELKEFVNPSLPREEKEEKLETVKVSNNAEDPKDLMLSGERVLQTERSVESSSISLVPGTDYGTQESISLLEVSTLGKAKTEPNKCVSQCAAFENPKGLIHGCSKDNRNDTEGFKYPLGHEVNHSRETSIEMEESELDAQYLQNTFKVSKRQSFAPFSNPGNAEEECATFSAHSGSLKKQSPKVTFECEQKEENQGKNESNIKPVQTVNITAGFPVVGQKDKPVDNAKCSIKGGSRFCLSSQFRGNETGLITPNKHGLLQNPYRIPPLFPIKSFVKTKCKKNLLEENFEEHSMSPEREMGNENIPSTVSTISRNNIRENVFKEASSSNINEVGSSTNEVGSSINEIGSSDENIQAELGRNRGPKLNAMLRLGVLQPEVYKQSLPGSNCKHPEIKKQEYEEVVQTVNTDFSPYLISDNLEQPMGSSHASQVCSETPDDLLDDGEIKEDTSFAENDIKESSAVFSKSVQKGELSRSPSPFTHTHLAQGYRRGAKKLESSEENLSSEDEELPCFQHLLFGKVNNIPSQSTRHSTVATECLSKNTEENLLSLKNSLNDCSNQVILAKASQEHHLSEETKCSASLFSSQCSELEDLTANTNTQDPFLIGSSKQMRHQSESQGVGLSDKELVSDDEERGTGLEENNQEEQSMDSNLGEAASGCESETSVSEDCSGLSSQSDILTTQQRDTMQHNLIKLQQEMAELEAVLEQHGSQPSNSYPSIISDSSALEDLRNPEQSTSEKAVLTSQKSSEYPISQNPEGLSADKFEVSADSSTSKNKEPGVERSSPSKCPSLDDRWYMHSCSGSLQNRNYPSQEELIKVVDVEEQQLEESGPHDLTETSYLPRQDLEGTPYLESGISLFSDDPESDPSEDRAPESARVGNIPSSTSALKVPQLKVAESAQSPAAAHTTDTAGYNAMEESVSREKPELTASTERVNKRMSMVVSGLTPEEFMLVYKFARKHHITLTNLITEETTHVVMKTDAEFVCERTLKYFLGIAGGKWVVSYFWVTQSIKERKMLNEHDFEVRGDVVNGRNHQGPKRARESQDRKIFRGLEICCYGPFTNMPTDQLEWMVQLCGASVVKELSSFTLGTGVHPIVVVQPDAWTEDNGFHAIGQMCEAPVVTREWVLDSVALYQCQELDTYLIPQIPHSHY

effect of a mutation on the interaction	Variant
disrupting interaction	L690P
